Assay results reported in patent US20090110692A1 (UNIVERSITY OF IOWA RESEARCH FOUNDATION, published 2009).
Changes are numbered by the printed parent chain. In names and notes the source's numbering stands.

Assays:
[1] = target: T1, TLR4 stably expressed on HEK293 cells (HEK/TLR4) (UniProt O00206 24-839, limits assumed); experiment: cell-based or functional assay
[2] = target: T1, TLR4 stably expressed on HEK293 cells …; experiment: inferred from dose-dependent inhibition of HEK/TLR4 activation by the wt complex (IL-8)
[3] = target: T1, TLR4 stably expressed on HEK293 cells …; experiment: cell association of radiolabelled complex with HEK/TLR4 cells, overnight 37 C, liquid scintillation (FIG. 3)
[4] = target: T1, TLR4 stably expressed on HEK293 cells …; experiment: competition: excess free MD-2 against ^3H-LOS:MD-2 on HEK/TLR4 cells, liquid scintillation
[5] = target: T1, TLR4 stably expressed on HEK293 cells …; experiment: inferred from intermediate inhibition of HEK/TLR4 activation by LOS:MD-2 (IL-8)

T1 sequence (O00206 24-839 limits assumed): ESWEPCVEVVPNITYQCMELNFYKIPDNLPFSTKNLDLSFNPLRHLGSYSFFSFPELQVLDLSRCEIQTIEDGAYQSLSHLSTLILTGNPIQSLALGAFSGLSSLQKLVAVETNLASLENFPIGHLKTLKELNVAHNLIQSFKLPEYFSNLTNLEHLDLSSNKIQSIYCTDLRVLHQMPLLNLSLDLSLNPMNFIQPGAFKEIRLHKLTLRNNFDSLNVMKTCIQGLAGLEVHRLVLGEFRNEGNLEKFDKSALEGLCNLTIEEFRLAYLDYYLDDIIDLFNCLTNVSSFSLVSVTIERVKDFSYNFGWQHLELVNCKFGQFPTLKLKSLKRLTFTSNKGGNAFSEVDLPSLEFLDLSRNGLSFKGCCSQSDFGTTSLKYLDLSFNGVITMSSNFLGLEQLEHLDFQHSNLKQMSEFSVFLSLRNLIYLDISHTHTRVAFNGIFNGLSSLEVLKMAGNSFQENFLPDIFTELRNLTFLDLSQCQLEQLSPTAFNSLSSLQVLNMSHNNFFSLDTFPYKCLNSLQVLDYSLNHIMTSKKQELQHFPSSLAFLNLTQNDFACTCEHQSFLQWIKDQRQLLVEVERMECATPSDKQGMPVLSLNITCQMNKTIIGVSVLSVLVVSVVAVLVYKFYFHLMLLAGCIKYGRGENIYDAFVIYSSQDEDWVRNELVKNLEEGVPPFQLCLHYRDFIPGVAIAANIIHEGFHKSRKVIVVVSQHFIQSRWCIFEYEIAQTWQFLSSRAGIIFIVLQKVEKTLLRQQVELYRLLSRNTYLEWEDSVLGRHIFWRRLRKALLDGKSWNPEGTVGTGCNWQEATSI

B1: E:MD-2 K125A.F126A (monomeric complex of wild-type endotoxin with MD-2 mutant K125A.F126A) (ligand)
chain: QKQYWVCNSSDASISYTYCDKMQYPISINVNPCIELKRSKGLLHIFYIPRRDLKQLYFNLYITVNTMNLPKRKEVICRGSDDDYSFCRALKGETVNTTISFSFKGIAASKGKYKCVVEAISGSPEEMLFCLEFVILHQPNSN
For B1, the “activation (IL-8) of HEK/TLR4 cells relative to wt E:MD-2” value [1] was about 10%.

B2: E:MD-2 (F126A) (monomeric complex of wild-type LOS with MD-2 mutant F126A) (ligand)
chain: B1 chain with A107K
notes: also called LOS:MD-2 (F126A); F126A MD-2 mutant
B2: binds [2].

B3: LOS:sCD14 complex (monomeric complex of N. meningitidis lipooligosaccharide with soluble CD14, Mr ~60,000) (other)
chain: TTPEPCELDDEDFRCVCNFSEPQPDWSEAFQCVSAVEVEIHAGGLNLEPFLKRVDADADPRQYADTVKALRVRRLTVGAAQVPAQLLVGALRVLAYSRLKELTLEDLKITGTMPPLPLEATGLALSSLRLRNVSWATGRSWLAELQQWLKPGLKVLSIAQAHSPAFSCEQVRAFPALTSLDLSDNPGLGERGLMAALCPHKFPAIQNLALRNTGMETPTGVCAALAAAGVQPHSLDLSHNSLRATVNPSAPRCMWSSALNSLNLSFAGLEQVPKGLPAKLRVLDLSCNRLNRAPQPDELPEVDNLTLDGNPFLVPGTALPHEGSMNSGVVPACARSTLSVGVSGTLVL
notes: also called ^3H-LOS:sCD14; endotoxin:sCD14
B3: no binding (tested: 0.75 ng/ml ^3H-LOS) [3].

B4: soluble recombinant wild-type MD-2-His6 (not complexed to endotoxin), in dialyzed conditioned insect cell medium (other, human)
chain: QKQYWVCNSSDASISYTYCDKMQYPISINVNPCIELKRSKGLLHIFYIPRRDLKQLYFNLYITVNTMNLPKRKEVICRGSDDDYSFCRALKGETVNTTISFSFKGIKFSKGKYKCVVEAISGSPEEMLFCLEFVILHQPNSNHHHHHH
notes: Used as unpurified conditioned medium (about 10 ng MD-2 per microliter after concentration); also called wt MD-2; rMD-2
B4: binds [4].

B5: soluble recombinant C95Y mutant MD-2-His6, in dialyzed conditioned insect cell medium (other, human)
chain: B4 chain with C77Y
notes: also called C95Y MD-2
B5: binds [5].
